Laboratory results from PMC3799444.
Residue numbers refer to the chain shown, from its start. In names and notes the source's numbering stands.

T1: Polλ Q243R (Homo sapiens, UniProt Q9UGP5 1-575, Q243R)
T1 sequence: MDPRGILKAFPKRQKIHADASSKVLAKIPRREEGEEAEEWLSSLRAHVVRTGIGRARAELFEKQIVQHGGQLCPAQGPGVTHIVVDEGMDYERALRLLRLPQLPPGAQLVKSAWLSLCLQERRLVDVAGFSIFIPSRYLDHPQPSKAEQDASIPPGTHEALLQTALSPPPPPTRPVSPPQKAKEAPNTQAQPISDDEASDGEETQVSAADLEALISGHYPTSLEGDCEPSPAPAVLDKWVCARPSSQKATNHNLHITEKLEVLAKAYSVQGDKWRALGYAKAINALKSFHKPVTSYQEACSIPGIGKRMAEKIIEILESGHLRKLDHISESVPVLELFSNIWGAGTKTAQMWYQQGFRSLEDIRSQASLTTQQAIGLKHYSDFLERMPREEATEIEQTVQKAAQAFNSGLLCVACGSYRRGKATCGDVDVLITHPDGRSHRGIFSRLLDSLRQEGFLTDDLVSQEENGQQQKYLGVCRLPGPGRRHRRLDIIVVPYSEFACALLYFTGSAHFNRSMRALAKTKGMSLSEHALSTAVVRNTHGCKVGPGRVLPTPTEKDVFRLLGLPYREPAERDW

T2: Polλ W239Y (Homo sapiens, UniProt Q9UGP5 1-575, W239Y)
T2 sequence: T1 sequence with W239Y, R243Q

B1: 5 nt gap FP-P/FP-T5/FP-D (dsDNA)
DNA 1: GGCCACGCAATGTTGACGTTTTTCGACAAGACCTCAGTAT
DNA 2: GGCAGCTTGGATCTTGTCGAAAAACGTCAACATTCGCCTAGGCTTCGGCAGCATATACTGAGGTCTTGTCGAAAAACGTCAACATTGCGTGGCC
DNA 3: GCCGAAGCCTAGGCGAATGTTGACGTTTTTCGACAAGATCCAAGCTGCC
modifications: 5'-phosphate on FT-D
B2: 1 nt gap Sp1C/T13C/DG1-P (dsDNA)
DNA 1: GATCACAGTGAGTAC
DNA 2: AGAAGTGTATCTCGTACTCACTGTGATC
DNA 3: AGATACACTTCT
modifications: 5'-phosphate on DG1-P

Assays:
Assay in all cases: EMSA
[1] = molecular target: T1, Polλ Q243R
[2] = molecular target: T2, Polλ W239Y
[3] = molecular target: Polµ WT (Homo sapiens, UniProt Q9NP87)
Sequence of Polµ WT (Q9NP87 whole entry): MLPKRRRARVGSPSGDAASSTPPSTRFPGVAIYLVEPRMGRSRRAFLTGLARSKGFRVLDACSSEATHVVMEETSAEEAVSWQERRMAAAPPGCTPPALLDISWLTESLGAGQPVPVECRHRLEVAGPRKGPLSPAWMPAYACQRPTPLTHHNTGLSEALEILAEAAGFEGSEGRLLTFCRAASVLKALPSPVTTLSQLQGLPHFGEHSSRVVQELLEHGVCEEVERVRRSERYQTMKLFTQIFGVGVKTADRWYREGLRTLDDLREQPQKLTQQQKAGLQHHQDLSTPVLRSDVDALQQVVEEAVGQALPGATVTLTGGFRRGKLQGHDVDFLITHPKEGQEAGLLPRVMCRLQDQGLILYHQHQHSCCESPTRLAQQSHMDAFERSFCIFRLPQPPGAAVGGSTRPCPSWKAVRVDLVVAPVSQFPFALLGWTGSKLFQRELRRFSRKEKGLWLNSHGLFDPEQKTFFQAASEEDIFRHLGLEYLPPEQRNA

Binder | binding result [1] | binding result [2] | binding result [3]
B1 | binds | binds | 
B2 |  |  | binds
